Measured values reported in patent US20180201654A1, “PEPTIDE INHIBITORS OF HAUSP DEUBIQUITINASE” (priority 2012, published 2018).

Biological target: HAUSP TRAF domain (HAUSP^62-205) (human), Q93009
Test: ITC, titration against the HAUSP TRAF domain, 20 C

Sequence of HAUSP TRAF domain (HAUSP^62-205) (human), Q93009 (Q93009 62-205): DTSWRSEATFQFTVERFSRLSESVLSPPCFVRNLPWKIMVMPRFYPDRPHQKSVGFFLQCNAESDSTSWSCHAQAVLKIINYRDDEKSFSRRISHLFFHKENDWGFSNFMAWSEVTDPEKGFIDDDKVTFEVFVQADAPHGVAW

Row | Binder | Ka | TΔS | n | ΔG | ΔH | Kd
1 | EGASTSGM (modifications not checked) [vIRF4^209-216 peptide] | 100000 M⁻¹ | -10.3 kcal/mol | 0.81 | -6.74 kcal/mol | -17.1 kcal/mol | 
2 | EQGPADDPGEGPSTG (modifications not checked) [EBNA1^435-449 peptide] | 2.1e+06 M⁻¹ | -8.69 kcal/mol | 0.81 | -8.48 kcal/mol | -17.2 kcal/mol | 480 nM
